Experimental findings from patent US20250171542A1 (ADEPT THERAPEUTICS, published 2025) are described below.

Assay [1] deals with T1, human PD-L1 expressed on cell surface (human, UniProt Q9NZQ7 19-290). The assay can be described thus: cell-based or functional assay.
The target of assay [2] is T2, human PD-L1-mFc fusion protein (Sino Biological, Cat #10084-H05H) (human, UniProt Q9NZQ7 19-239).
T2 construct: Bought protein; also called human PD-L1 mouse Fc fusion protein; not shown: mouse Fc
The assay can be described thus: competition ELISA, coated human PD-L1-mFc, competitor human PD-1-His-hFc-Biotin. The method, then:
Briefly, microplates were precoated with […] of human PD-L1-mFc fusion protein (Sino Biological, Cat #10084-H05H) diluted in 1×PBS (GIBCO) and incubated overnight at 4° C.; Plates were washed four times with 300 μl/well washing buffer (1×PBST, diluted from 20×PBST (Thermo Scientific) with distilled water)) and then blocked with 300 μl/well of blocking buffer (1×PBST/3% BSA) for 2 hours at RT on shaker (100 rpm). […] Plates were washed and added with 100 μl/well TMB substrate for color development at room temperature in dark for up to 10 minutes. After addition of 50 μl/well of stop solution (1N H₂SO₄), plates were read at 450 nm on a plate reader (SpectraMax M5).
(In an ELISA, binding on a coated surface is turned into a signal by an enzyme label.)

In assay [3] the target is T3, CD80 (Sino Biological, Cat #10698-H08H) (UniProt P33681 35-242).
T3 sequence (looked up): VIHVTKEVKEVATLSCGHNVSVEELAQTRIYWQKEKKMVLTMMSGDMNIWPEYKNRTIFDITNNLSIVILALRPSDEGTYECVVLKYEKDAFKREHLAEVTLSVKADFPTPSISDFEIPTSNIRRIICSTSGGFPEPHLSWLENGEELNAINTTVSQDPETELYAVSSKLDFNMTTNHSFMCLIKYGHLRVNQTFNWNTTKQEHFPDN
The assay can be described thus: ELISA.

The target in assay [4] is T4, B7-H3 (Sino Biological, Cat #11188-H08H) (UniProt Q5ZPR3 29-461).
T4 sequence (looked up): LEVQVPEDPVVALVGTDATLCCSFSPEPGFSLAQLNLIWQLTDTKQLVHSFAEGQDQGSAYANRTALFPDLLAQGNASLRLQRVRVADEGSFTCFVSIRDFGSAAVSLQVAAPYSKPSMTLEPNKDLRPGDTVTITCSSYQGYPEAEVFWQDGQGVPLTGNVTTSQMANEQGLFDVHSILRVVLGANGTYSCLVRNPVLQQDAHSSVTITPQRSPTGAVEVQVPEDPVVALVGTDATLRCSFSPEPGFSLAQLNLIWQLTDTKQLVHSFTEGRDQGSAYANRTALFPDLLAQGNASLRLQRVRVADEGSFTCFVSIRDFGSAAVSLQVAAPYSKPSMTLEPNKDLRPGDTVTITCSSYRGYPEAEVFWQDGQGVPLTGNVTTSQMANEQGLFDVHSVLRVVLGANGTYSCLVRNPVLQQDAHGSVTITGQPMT
The experiment in a line: ELISA.

For assay [5], the target named is T5, CD86 (Sino Biological, Cat #10699-H08H) (UniProt P42081 24-245).
T5 sequence (looked up): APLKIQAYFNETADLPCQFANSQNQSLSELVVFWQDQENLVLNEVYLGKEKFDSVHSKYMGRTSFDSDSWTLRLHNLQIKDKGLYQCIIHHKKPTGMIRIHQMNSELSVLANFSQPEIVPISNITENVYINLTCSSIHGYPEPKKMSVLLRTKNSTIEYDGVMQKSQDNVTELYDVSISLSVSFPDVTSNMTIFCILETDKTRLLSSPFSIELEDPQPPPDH
The experiment in a line: ELISA.

Assay [6] concerns the target mouse PD-L1 (Sino Biological, Cat #50010-M08H) (mouse, UniProt Q9EP73 19-238). The assay can be described thus: ELISA.
Assay [7] deals with T1, human PD-L1 expressed on cell surface. The assay can be described thus: cell-based or functional assay. The source holds these as a separate data set.

T2 sequence (Q9NZQ7 19-239 limits assumed): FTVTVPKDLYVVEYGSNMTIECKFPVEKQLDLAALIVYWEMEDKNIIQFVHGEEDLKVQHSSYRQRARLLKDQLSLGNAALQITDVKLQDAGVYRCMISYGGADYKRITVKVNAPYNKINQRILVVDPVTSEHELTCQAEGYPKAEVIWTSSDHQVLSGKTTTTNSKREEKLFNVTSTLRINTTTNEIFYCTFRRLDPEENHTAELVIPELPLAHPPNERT
Sequence of mouse PD-L1 (Sino Biological, Cat #50010-M08H) (Q9EP73 19-238 limits assumed, stated change not applied): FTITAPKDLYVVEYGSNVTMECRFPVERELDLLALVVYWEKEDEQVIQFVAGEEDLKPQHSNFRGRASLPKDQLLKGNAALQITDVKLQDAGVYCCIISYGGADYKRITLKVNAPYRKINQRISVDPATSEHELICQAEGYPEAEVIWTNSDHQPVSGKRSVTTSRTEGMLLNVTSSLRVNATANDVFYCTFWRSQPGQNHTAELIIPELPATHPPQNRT
T1 sequence (Q9NZQ7 19-290 limits assumed): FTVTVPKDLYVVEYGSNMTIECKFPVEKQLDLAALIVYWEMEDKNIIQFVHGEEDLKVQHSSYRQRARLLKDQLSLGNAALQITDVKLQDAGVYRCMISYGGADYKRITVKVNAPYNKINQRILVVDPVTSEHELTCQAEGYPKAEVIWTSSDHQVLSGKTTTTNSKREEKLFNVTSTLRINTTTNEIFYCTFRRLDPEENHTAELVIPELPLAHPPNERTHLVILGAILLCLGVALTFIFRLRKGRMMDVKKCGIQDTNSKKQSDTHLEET

B1: 33E8 (antibody, human IgG1, V domains shown)
VH: QSLEESGGDLVKPGASLTLTCTASGFYFSSGYDMSWVRQAPGKGLEWIASIFTTSGSTWYANWAKGRFTISKTSSTTVTLQMTSLTDADTATYFCTKDGVGSFYMNLWGPGTLVTVSS
VL: LVMTQTPASVEVAVGGTVTIKCQASQTIGSNLAWYQQRPGQPPKLLIYKAFTLASGVSSRFKGSGSGTQFTLTISGVECADAATYYCQQGATRINIDNAFGGGTEVVVK
Usually IC50 stands for the concentration that inhibits the measured activity by half. As for B1, the “IC50 (nM), Promega PD-1/PD-L1 blockade reporter assay, another assay” value in assay [1] worked out at 0.38 nM. This molecule showed an IC50 in assay [2] of 3.1 nM. Also, the binding result in assay [3], in assay [4], in assay [5] and in assay [6] was “no binding” each time.

B2: 74F4 (antibody, human IgG1, V domains shown)
VH: QEQLEESGGGLVQPEGSLTLTCTASGFSFSGDYYMSWVRQAPGKGLEWIASIYTGSLNTYYATWAKGRFTISLTSSTTVTLQMTSLTAADTATYFCARRNKNADYGHFDLWGPGTLVTVSS
VL: YDMTQTPASVEVAVGGTVTIKCQASQSINDRLAWYQQSPGQPPKLLIYGASTLASGVPSRFKGSGSGTDFTLTISDLECADAATYYCQQGWTVSSLDNAFGGGTEVVAK
As to B2, the binding result in assay [3], in assay [4], in assay [5] and in assay [6] was “no binding” each time.

B3: 62E6 (antibody, human IgG1, V domains shown)
VH: QEQLEESGGDLVKPEGSLTLTCTASGFSFSGDYYMSWVRQAPGKGLEWIASIYTGSLNIYYATWAKGRFTISLTSSTTVTLQMTSLTAADTATYFCARRNKNADYGHFDLWGPGTLVTVSS
VL: YDMTQTPASVEVAVGGTVTIKCQASQSINDRLAWYQQKPRQPPKLLIYGASTLASGVPSRFKGSGSGTEFTLTISDLECVDAATYYCQQGWTVSSLDNAFGGGTEVVAK
Take B3: the “IC50 (nM), Promega PD-1/PD-L1 blockade reporter assay” value in assay [7] was 0.41 nM. The binding result in assay [3], in assay [4], in assay [5] and in assay [6] was “no binding” each time.

B4: 57F11 (antibody, human IgG1, V domains shown)
VH: QEHLEESGGGLVQPEGALTLTCTASGFSFSGDYYMSWVRQAPGKGLEWIASIYTGSLNTYYATWAKGRFTISIASSTTVTLQVTSLTAADTATYFCARRTKNGDYGYFDLWGPGTLVTVSS
VL: YDMTQTPASVEVAVGGTVTIKCQASQSINDRLAWYQQKPGQPPKLLIYAASTLASGVPSRFKGSGSGTEFTLTISDLECADAATYYCQQGWTVSSLENAFGGGTEVVAK
As for B4, the binding result in assay [3], in assay [4], in assay [5] and in assay [6] was “no binding” in each case.

B5: 57B10 (antibody, human IgG1, V domains shown)
VH: QEQLEESGGGLVQPEGSLTLTCTASGFSFSDDYYMSWVRQAPGKGLEWIASIYTGSLNTYYATWAKGRFTISLTSSTTVTLQMTSLTAADTATYFCARRNKNADWGHFDLWGPGTLVTVSS
VL: YDMTQTPASVEVAVGGTVTIKCQASQSISTALAWYQQKPGQPPKLLIYAASTLASGVPSRFRGSGSGTDFTLTISDLECADAATYYCQQGWTVSSLDNAFGGGTEVVAM
In the case of B5, in assay [7], the “IC50 (nM), Promega PD-1/PD-L1 blockade reporter assay” value was 0.47 nM. In addition, the binding result in assay [3], in assay [4], in assay [5] and in assay [6] was “no binding” in each case.

B6: 55H3/76D6 (antibody, human IgG1, V domains shown)
VH: QEQLEESGGGLVQPEGSLTLTCTVSGFSFSGDYYMSWVRQAPGKGLEWVASIYTGSLNSYYATWAKGRFTISLTSSTTVTLQMTSLTAADTATYFCARRNKNADYGHFDLWGPGTLVTVSS
VL: YDMTQTPASVEVAVGGTVTIKCQASESINDRLAWYQQKPGQPPKLLIYAASTLASGVPSRFRGSGSGTDFTLTISDLECADAATYYCQQGWTVSSLDNAFGGGTEVVAM
In the case of B6, in assay [7], the “IC50 (nM), Promega PD-1/PD-L1 blockade reporter assay” value was 0.97 nM. The binding result in assay [3], in assay [4], in assay [5] and in assay [6] was “no binding” each time.

B7: 56E5 (antibody, human IgG1, V domains shown)
VH: QEQLEESGGGLVQPEGSLTLTCTASGFSFSGDYYMSWVRQAPGKGLEWIASIYTGSLNTYYATWAKGRFTISLTSSTTVTLQMTSLTAADTATYFCARRHKNADYGHFDLWGPGTLVTVSS
VL: YDMTQTPGSVEVAVGGTVTIKCQASQSINDRLAWYQQTPGQPPKLLIYGASTLASGVPSRFKGSGSGTEFTLTISDLECADAATYYCQQGWTVSSLDNAFGGGTEVVAK
With B7, the “IC50 (nM), Promega PD-1/PD-L1 blockade reporter assay” value in assay [7] is 0.41 nM. Moreover, the binding result in assay [3], in assay [4], in assay [5] and in assay [6] was “no binding” in each case.

B8: 69D10 (antibody, human IgG1, V domains shown)
VH: QEQLEESGGGLVQPEGSLTLTCTASGFSFSGDWYMSWVRQAPGKGLEWIASIYSGSLNTYYATWAKGRFTVSLTSSTTVTLQMTSLTAADTATYFCARRNKNADYGHFDLWGPGTLVTVSS
VL: YDMTQTPASVEVAVGGTVTIKCQASQSIGNALAWYQQKPGQPPKLLIYATSTLASGVPSRFKGSGSGTEFTLTISDLECGDAATYYCQQGWTVSSLDNAFGGGTEVVAK
In the case of B8, the binding result in assay [3], in assay [4], in assay [5] and in assay [6] was “no binding” in each case.

B9: 73C8 (antibody, human IgG1, V domains shown)
VH: QEQLEESGGGLVQPEGSLTLTCTVSGFSFSGDYYMSWVRQAPGKGLEWVASIYTGSLNTYYATWAKGRFTISLTSSTTVTLQMTSLTAADTATYFCARRNKNADYGHFDLWGPGTLVTVSS
VL: YDMTQTPASVEVAVGGTVTIKCQASQSINDRLAWYQQKPGQPPKLLIYAASTLASGVPSRFRGSGSGTDFTLTISDLECADAATYYCQQGWTVSSLDNAFGGGTEVVAM
For B9, the binding result in assay [3], in assay [4], in assay [5] and in assay [6] was “no binding” each time.

B10: 32E2 (antibody, human IgG1, V domains shown)
VH: QEQLEESGGDLVKPEGSLTLTCTASGFSFSSSYYMSWVRQAPGMGLEWIASISGGVTDNAYYASWAKGRFTVSKTSSTTVTLQLTSLTAADTATYFCARDSSSGYFFLLWGPGTLVTVSS
VL: LVMTQTPSSVSAAVGGTVTINCQASQNIYSNLAWYQQKPGQRPKLLIFGASNLRSGVPSRFKGSGSGTEYTLTISDLECADAATYYCQEGYSIGNVDNPFGGGTEVVVK
B10: the IC50 in assay [2] is 7.5 nM. Also, the binding result in assay [3], in assay [4], in assay [5] and in assay [6] was “no binding” each time.

B11: 33H7 (antibody, human IgG1, V domains shown)
VH: QEQLVESGGGLVQPEGSLTVTCTASGFDLSRYFYMSWVRQAPGKGLEWIASISTGSDITDYASWAKGRFTISKTSSTTVTLQMTTLTAADTAIYFCARWTSGGGGFGLWGPGTLVTVSS
VL: QVLTQTASPVSAAVGGTVTLNCQSSQSIYNNYLSWYQQRAGQPPKLLIYSTATLASGVPSRFKGSGSGTQFTLTISEIQCEDAATYYCQGYYSGYIWTFGGGTEVVVK
In the case of B11, in assay [7], the “IC50 (nM), Promega PD-1/PD-L1 blockade reporter assay” value came out at 0.52 nM. In addition, in assay [2], the concentration for half-maximal inhibition (IC50) is 2.1 nM. Moreover, the binding result in assay [3], in assay [4], in assay [5] and in assay [6] was “no binding” throughout.
